{"source": "patent US20170145391", "proteins": {"B1": {"name": "FLAG-mTORβ (protein)", "chain": "MLGTGPAAATTAATTSSNVSVLQKKVTEDLSKTLLMYTVPAVQGFFRSISLSRGNNLQDTLRVLTLWFDYGHWPDVNEALVEGVKAIQIDTWLQVIPQLIARIDTPRPLVGRLIHQLLTDIGRYHPQALIYPLTVASKSTTTARHNAANKILKNMCEHSNTLVQQAMMVSEELIRVAILWHEMWHEGLEEASRLYFGERNVKGMFEVLEPLHAMMERGPQTLKETSFNQAYGRDLMEAQEWCRKYMKSGNVKDLTQAWDLYYHVFRRISKQLPQLTSLELQYVSPKLLMCRDLELAVPGTYDPNQPIIRIQSIAPSLQVITSKQRPRKLTLMGSNGHEFVFLLKGHEDLRQDERVMQLFGLVNTLLANDPTSLRKNLSIQRYAVIPLSTNSGLIGWVPHCDTLHALIRDYREKKKILLNIEHRIMLRMAPDYDHLTLMQKVEVFEHAVNNTAGDDLAKLLWLKSPSSEVWFDRRTNYTRSLAVMSMVGYILGLGDRHPSNLMLDRLSGKILHIDFGDCFEVAMTREKFPEKIPFRLTRMLTNAMEVTGLDGNYRITCHTVMEVLREHKDSVMAVLEAFVYDPLLNWRLMDTNTKGNKRSRTRTDSYSAGQSVEILDGVELGEPAHKKTGTTVPESIHSFIGDGLVKPEALNKKAIQIINRVRDKLTGRDFSHDDTLDVPTQVELLIKQATSHENLCQCYIGWCPFW"}}, "key": {"[1]": {"biological_target": "4E-BP1 (Calbiochem), Q13541", "sequence (Q13541 whole entry)": "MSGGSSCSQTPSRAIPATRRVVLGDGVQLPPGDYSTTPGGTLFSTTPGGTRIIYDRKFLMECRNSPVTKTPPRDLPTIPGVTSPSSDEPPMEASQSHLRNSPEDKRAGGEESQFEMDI"}}}
{"protein": "B1", "values": [{"measurement": "mTOR in vitro kinase assay; immunoblot with phosphospecific antibody pS65-4E-BP1", "setting": "[1]", "value": "mTORβ can phosphorylate both S6K1 and 4E-BP1 in vitro, but to a lesser extent than mTORα"}, {"measurement": "mTOR in vitro kinase assay; immunoblot with phosphospecific antibody pT389-S6K1", "setting": "His-S6K1C, P23443", "value": "mTORβ can phosphorylate both S6K1 and 4E-BP1 in vitro, but to a lesser extent than mTORα"}]}
